# US20160331662A1 (UAB RESEARCH FOUNDATION, published 2016)
# T1: C123^AgI/II (Streptococcus mutans UA159, UniProt P23504 1000-1486)
# T1 construct: domain: C123
# T1 sequence: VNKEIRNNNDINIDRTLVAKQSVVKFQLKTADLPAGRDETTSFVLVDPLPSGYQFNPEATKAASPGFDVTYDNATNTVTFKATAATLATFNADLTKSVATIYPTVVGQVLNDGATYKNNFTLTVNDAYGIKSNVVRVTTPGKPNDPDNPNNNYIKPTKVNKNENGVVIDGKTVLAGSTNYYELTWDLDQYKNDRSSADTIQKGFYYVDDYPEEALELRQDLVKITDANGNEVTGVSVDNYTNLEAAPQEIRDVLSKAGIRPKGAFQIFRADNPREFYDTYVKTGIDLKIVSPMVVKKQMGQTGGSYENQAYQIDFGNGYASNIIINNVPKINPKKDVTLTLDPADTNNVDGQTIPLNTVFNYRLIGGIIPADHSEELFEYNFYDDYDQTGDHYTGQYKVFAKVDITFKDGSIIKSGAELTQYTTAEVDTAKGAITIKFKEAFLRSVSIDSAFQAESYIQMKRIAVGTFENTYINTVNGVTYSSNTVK
# T2: A3VP1^AgI/II (Streptococcus mutans UA159, UniProt P23504 386-874)
# T2 construct: domain: A3VP1; also called A3VP1 of AgI/II
# T2 sequence: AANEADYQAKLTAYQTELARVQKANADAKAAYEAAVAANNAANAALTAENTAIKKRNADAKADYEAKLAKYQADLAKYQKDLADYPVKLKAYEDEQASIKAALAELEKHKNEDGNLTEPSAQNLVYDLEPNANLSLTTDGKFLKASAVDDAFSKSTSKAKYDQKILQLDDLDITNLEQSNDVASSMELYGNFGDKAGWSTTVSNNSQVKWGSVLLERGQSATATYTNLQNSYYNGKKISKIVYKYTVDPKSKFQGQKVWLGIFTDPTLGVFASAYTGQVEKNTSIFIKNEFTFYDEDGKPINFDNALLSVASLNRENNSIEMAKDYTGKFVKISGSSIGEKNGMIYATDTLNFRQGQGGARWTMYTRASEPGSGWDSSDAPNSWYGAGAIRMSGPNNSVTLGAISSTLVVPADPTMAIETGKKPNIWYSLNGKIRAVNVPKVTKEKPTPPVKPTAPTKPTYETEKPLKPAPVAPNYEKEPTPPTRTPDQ
# B1: FL^SspB (S. gordonii DL1 SspB, residues 39-1433) (other)
# chain: DEVTETTSTSTVEVATTGNPATNLPEAQGEMSQVAKESQAKAGSKESALPVEVSSADLDKAVADAKSAGVKVVQDETKDKGTATTATDNAQKQDEIKSDYAKQAEEIKTTTEAYKKEVAAHQAETDKINAENKAADDKYQKDLKSHQEEVEKINTANATAKAEYEAKLAQYQKDLATVKKANEDSQQDYQNKLSAYQTELARVQKANAEAKEAYEKAVKENTAKNEALKVENEAIKQRNETAKATYEAAMKQYEADLAAIKKANEDNDADYQAKLAAYQTELARVQKANAEAKEAYDKAVKENTAKNTAIQAENEAIKQRNETAKATYDAAVKKYEADLAAVKQANATNEADYQAKLAAYQTELARVQKANADAKATYEKAVEDNKAKNAAIKAENEEIKQRNAVAKTDYEAKLAKYEADLAKYKKEFAAYTAALAEAESKKKQDGYLSEPRSQSLNFKSEPNAIRTIDSSVHQYGQQELDALVKSWGISPTNPDRKKSRAYSYFNAINSNNTYAKLVLEKDKPVDVTYTGLKNSSFNGKKISKVVYTYTLKETGFNDGTKMTMFASSDPTVTAWYNDYFTSTNINVKVKFYDEEGQLMNLTGGLVNFSSLNRGNGSGAIDKDAIESVRNFNGRYIPISGSSIKIHENNSAYADSSNAEKSLGARWNTSEWDTTSSPNNWYGAIVGEITQSEISFNMASSKSGNIWFAFNSNINAIGVPTKPVAPTAPTQPMYETEKPLEPAPVAPSYENEPTPPVKTPDQPEPSKPEEPTYETEKPLEPAPVAPSYENEPTPPVKTPDQPEPSKPEEPNYETEKPLEPAPVAPSYENEPTPPVKIPDQPEPSKPEEPTYDPLPTPPLAPTPKQLPTPPVVPTVHFHYSSLLAQPQINKEIKNEDGVDIDRTLVAKQSIVKFELKTEALTAGRPKTTSFVLVDPLPTGYKFDLDATKAASTGFDTTYDEASHTVTFKATDETLATYNADLTKPVETLHPTVVGRVLNDGATYTNNFTLTVNDAYGIKSNVVRVTTPGKPNDPDNPNNNYIKPTKVNKNKEGLNIDGKEVLAGSTNYYELTWDLDQYKGDKSSKEAIQNGFYYVDDYPEEALDVRPDLVKVADEKGNQVSGVSVQQYDSLEAAPKKVQDLLKKANITVKGAFQLFSADNPEEFYKQYVATGTSLVITDPMTVKSEFGKTGGKYENKAYQIDFGNGYATEVVVNNVPKITPKKDVTVSLDPTSENLDGQTVQLYQTFNYRLIGGLIPQNHSEELEDYSFVDDYDQAGDQYTGNYKTFSSLNLTMKDGSVIKAGTDLTSQTTAETDATNGIVTVRFKEDFLQKISLDSPFQAETYLQMRRIAIGTFENTYVNTVNKVAYASNTVRTTTPIPRTPDKPTPIPTPKPKDP
# notes: range 39-1433
# How the values were obtained:
# [1] = biological target: T3, iSRCR123 (human, UniProt Q9UGM3 102-463); assay: SPR, analyte over immobilized iSRCR123; quantity and unit not printed beside the number, told as 'nanomolar affinities'
# T3 construct: domain: SRCR123; also called SRCRs; iSRCRs
# [2] = biological target: T3, iSRCR123; assay: SPR, analyte over immobilized iSRCR1; quantity and unit not printed beside the number, unit taken from the paragraph's 'nanomolar affinities'
# [3] = biological target: T1, C123^AgI/II; assay: SPR, analyte over ligand immobilized on CM5 chip, 1:1 Langmuir model; SPR with calcium; immobilized iSRCR1, not deglycosylated
# [4] = biological target: T4, FL^AgI/II (S. mutans UA159 Antigen I/II, full length recombinant construct) (Streptococcus mutans UA159, UniProt P23504 39-1562); assay: as above
# T4 construct: also called CG14
# [5] = biological target: T2, A3VP1^AgI/II; assay: as above
# [6] = biological target: B1; assay: as above
# [7] = biological target: T1, C123^AgI/II; assay: SPR, analyte over ligand deglycosylated on the CM5 chip, 1:1 Langmuir model
# [8] = biological target: T4, FL^AgI/II (S. mutans UA159 Antigen …); assay: as above
# [9] = biological target: T2, A3VP1^AgI/II; assay: as above
# [10] = biological target: B1; assay: as above
# [11] = biological target: salivary agglutinin (SAG) (human, UniProt Q9UGM3 20-2413); assay: SPR, analyte over SAG immobilized on CM5 chip, 1:1 Langmuir model
# salivary agglutinin (SAG), sequence (Q9UGM3 whole entry): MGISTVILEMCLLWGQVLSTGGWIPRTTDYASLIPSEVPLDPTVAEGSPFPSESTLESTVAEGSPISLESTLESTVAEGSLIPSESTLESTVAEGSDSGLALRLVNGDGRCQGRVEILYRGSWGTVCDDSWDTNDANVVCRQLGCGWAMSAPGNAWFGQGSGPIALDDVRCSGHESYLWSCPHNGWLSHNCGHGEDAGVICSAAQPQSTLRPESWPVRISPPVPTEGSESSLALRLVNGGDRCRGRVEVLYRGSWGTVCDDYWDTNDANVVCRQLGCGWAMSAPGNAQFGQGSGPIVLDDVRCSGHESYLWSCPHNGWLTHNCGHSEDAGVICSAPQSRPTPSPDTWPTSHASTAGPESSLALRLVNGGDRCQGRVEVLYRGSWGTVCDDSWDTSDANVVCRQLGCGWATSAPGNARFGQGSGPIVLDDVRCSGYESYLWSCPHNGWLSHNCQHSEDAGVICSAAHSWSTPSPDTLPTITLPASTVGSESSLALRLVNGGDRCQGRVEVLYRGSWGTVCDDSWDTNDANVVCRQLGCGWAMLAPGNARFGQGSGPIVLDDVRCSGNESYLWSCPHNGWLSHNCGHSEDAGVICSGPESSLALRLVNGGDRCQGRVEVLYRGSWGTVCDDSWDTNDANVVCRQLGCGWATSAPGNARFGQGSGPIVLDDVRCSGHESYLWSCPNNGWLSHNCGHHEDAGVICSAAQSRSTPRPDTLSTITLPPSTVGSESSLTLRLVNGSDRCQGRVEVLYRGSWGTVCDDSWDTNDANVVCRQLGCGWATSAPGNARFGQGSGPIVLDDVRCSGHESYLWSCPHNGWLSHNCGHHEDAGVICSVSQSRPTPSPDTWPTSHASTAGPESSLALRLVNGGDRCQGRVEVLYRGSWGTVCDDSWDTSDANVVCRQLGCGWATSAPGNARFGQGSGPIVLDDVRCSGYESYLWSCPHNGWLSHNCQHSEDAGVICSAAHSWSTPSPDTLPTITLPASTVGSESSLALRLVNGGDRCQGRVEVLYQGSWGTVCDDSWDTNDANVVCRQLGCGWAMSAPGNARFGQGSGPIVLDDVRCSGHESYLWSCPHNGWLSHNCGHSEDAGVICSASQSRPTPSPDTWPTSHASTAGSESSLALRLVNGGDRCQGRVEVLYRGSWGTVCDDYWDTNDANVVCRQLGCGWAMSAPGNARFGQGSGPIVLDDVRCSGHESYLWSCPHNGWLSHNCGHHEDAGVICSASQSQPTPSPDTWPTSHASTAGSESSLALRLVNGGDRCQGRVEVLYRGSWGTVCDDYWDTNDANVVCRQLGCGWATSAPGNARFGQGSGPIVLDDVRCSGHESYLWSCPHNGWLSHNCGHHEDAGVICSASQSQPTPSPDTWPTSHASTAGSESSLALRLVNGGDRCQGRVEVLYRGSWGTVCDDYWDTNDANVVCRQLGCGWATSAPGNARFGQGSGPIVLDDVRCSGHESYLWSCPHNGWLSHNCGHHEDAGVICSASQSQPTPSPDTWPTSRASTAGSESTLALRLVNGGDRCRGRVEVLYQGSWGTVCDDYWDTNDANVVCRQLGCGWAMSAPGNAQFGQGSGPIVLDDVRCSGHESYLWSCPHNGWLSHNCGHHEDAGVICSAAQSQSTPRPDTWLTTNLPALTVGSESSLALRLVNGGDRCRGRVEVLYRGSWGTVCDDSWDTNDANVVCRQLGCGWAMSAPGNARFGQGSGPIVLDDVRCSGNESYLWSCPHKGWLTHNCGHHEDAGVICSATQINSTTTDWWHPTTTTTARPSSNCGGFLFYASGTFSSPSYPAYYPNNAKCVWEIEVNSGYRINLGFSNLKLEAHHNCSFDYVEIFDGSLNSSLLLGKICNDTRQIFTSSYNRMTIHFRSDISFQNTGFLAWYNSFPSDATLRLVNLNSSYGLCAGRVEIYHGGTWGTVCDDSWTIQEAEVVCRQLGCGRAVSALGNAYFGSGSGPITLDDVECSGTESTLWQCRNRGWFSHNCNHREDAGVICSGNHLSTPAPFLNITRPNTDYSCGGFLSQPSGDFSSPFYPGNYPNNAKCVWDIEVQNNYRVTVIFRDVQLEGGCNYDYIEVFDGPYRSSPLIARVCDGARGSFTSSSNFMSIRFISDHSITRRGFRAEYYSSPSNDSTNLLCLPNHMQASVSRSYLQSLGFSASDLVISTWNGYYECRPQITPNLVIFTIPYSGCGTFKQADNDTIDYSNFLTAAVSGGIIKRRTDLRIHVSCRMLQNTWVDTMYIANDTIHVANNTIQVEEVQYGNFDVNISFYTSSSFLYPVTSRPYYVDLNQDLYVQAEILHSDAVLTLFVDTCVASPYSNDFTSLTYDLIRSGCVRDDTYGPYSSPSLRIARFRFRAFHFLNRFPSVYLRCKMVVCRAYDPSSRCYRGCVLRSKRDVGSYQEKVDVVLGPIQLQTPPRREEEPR
# T4 sequence (P23504 39-1562): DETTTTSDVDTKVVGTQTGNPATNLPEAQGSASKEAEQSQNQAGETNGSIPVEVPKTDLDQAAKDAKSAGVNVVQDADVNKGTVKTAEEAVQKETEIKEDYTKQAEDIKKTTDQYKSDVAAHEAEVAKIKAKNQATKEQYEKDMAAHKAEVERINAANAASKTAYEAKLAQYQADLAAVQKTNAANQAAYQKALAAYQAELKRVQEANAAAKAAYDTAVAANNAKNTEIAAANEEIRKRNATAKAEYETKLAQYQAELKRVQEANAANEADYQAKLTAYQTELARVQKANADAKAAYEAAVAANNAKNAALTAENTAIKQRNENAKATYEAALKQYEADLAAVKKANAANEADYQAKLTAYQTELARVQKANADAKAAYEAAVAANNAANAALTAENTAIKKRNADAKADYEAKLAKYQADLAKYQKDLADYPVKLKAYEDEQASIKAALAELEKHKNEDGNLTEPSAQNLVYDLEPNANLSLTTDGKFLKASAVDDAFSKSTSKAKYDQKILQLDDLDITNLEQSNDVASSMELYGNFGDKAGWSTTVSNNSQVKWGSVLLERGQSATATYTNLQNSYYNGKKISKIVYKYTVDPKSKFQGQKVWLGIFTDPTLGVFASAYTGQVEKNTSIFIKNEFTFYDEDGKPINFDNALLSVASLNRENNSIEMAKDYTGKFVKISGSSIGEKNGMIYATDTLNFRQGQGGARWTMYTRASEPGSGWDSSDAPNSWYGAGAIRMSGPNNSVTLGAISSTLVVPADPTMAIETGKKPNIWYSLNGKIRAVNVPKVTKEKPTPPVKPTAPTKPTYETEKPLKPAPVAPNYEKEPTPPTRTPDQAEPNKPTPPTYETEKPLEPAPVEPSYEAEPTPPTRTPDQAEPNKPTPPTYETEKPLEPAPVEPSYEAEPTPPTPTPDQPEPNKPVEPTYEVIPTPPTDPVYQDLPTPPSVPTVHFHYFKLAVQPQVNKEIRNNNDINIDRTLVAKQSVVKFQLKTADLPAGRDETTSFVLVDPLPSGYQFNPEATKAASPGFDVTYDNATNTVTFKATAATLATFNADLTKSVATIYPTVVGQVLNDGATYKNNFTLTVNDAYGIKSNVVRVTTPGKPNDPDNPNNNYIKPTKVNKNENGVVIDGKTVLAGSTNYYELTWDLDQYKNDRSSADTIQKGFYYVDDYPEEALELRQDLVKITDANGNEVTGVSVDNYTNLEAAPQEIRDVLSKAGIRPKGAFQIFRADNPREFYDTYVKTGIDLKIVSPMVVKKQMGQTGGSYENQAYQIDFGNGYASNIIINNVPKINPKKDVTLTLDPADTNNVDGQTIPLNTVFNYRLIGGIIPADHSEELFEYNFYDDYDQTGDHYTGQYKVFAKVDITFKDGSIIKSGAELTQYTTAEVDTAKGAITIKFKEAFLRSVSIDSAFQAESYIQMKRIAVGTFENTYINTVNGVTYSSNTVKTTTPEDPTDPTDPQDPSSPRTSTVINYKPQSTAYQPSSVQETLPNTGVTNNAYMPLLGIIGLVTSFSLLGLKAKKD
# T3 sequence (Q9UGM3 102-463 limits assumed): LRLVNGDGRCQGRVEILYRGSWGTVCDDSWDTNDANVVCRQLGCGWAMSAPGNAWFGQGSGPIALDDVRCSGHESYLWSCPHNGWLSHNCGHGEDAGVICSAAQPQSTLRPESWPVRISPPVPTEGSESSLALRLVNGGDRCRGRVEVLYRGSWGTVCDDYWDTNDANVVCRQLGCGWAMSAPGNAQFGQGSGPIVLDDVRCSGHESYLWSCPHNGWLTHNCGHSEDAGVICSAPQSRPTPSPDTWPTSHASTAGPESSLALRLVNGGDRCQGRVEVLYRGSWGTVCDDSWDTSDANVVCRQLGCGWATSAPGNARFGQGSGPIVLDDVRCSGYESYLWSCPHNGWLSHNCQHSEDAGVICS
Binder,Ka [7] [M⁻¹],Kd [7] [nM],koff [7] [s⁻¹],kon [7] [M⁻¹ s⁻¹],Ka [8] [M⁻¹],Kd [8] [nM],koff [8] [s⁻¹],kon [8] [M⁻¹ s⁻¹],Ka [9] [M⁻¹],Kd [9] [nM],koff [9] [s⁻¹],kon [9] [M⁻¹ s⁻¹],Ka [10] [M⁻¹],Kd [10] [nM],koff [10] [s⁻¹],kon [10] [M⁻¹ s⁻¹],further results
"iSRCR1 (receptor, not shown: small tags and cut ends, domain: SRCR1; also called SRCRs; iSRCRs) not shown",–,–,–,–,–,–,–,–,–,–,–,–,–,–,–,–,Kd [1]: 1.2 nM; Kd [2]: 5.68 nM; Ka [3]: 6.46e+06 M⁻¹; Kd [3]: 151 nM; koff [3]: 0.00232 s⁻¹; kon [3]: 15400 M⁻¹ s⁻¹; Ka [4]: 1.31e+08 M⁻¹; Kd [4]: 7.69 nM; koff [4]: 0.000976 s⁻¹; kon [4]: 127000 M⁻¹ s⁻¹; Ka [5]: 8.57e+06 M⁻¹; Kd [5]: 117 nM; koff [5]: 0.00327 s⁻¹; kon [5]: 28000 M⁻¹ s⁻¹; Ka [6]: 3.91e+06 M⁻¹; Kd [6]: 256 nM; koff [6]: 0.00237 s⁻¹; kon [6]: 9250 M⁻¹ s⁻¹
"iSRCR1 (Deglycosylated) (receptor, domain: SRCR1; also called deglycosylated iSRCR1) not shown",48100,20800,0.0246,1180,865000,1160,0.0575,49700,1.92e+06,520,0.00274,5270,7.97e+06,125,0.00104,8300,–
"iSRCR123 (Deglycosylated) (receptor, domain: SRCR123; also called deglycosylated iSRCR123) not shown",458000,2180,0.00658,3010,6.82e+06,147,0.000464,3160,1.22e+06,818,0.00333,4070,5.24e+06,191,0.00132,6920,–
B1,–,–,–,–,–,–,–,–,–,–,–,–,–,–,–,–,Ka [11]: 1.63e+08 M⁻¹; Kd [11]: 6.15 nM; koff [11]: 0.00197 s⁻¹; kon [11]: 320000 M⁻¹ s⁻¹
